From PMC7360481

Target: Sox2 (Mus musculus, UniProt P48432 1-319)
Assay: EMSA

Sox2, sequence (P48432 whole entry): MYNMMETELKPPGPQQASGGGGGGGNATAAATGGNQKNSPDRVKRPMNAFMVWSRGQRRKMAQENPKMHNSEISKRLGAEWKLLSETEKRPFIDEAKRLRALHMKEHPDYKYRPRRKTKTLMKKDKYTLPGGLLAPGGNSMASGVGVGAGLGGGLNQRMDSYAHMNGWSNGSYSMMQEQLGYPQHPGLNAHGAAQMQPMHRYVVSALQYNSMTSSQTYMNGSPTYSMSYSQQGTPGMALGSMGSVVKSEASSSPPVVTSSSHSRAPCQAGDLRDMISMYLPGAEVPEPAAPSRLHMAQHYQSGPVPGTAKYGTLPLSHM

B1: RNA/DNA hybrid (DNA:RNA)
RNA: CCUACUACCUGUGCCUUUAAGUACCUUUUCUGUCUUCUA
DNA: TAGAAGACAGAAAAGGTACTCTAAAGGCACAGGTAGTAGG
binding result: no binding
